Measurements published in patent publication US20260183363A1, “INHIBITION OF LUTEINIZING HORMONE (LH) ACTION AS TREATMENT OF PERIMENOPAUSAL AND POSTMENOPAUSAL SYMPTOMS AND COMPLICATIONS” (RIGSHOSPITALET, priority 2022, published 2026).
Non-standard residues stand in square brackets, D forms with d. Residues, ends and D or L forms follow the SMILES beside them. dPhe(4-Cl) = N[C@H](Cc1ccc(Cl)cc1)C(=O)O; d2Nal = N[C@H](Cc1ccc2ccccc2c1)C(=O)O; dCit = NC(=O)NCCC[C@@H](N)C(=O)O; d3Pal = N[C@H](Cc1cccnc1)C(=O)O

Experiments:
[1] = test system: bilateral ovariectomized female C57BL/6JRj mice; experiment: Calcium excretion and kidney weight in menopause mouse model; type: in vivo; conditions: for kidney weight compared with vehicle (IgG2b): female mice without ovaries; for kidney weight compared with vehicle (IgG2b) / calcium excretion: day 10; for calcium excretion: female mouse model
Method: (§1) Bilateral ovariectomized female C57BL/6JRj mice, 8 weeks of age, were included in the study and administered with IgG2b (control) or 1 of 3 test articles (LH-β ab, LHCGR ab or GnRH antagonist) either at study day 1, study day 1 and 5 or once a day for 9 days. The route of administration was through intraperitoneal (i.p.) injection. The study included be 6 groups in total (Table 6); group 1 (female, n=6) was treated i.p. with IgG2b (control) on study day 1 and day 5, group 2 (female, n=3) was treated i.p. with LH-β ab at study day 1, group 3 (female, n=1) was treated i.p. with LH-β AB on study day 1 and day 5, Group 4 (female, n=3) was treated i.p. with LHCGR ab at study day 1, group 5 (female, n=1) was treated i.p. with LHCGR ab on study day 1 and day 5, group 6 (female, n=3) was treated i.p. with GnRH antagonist once a day (q.d.) for 9 days. Blood for preparation of serum was collected prior to dosing on study day 1 and at termination on study day 10. Urine and kidneys were collected on day 10.
Seventeen (17) bilateral ovariectomized C57BL/6JRj female mice 8 weeks of age, were supplied by Janvier Labs France. The ovaries from the female mice were surgically removed by the supplier (see also Table 6). Fourteen (14) C57BL/6JRj male mice were also stratified into the different groups except that no male mice were treated with GnRH antagonist, and the male mice were therefore only stratified into groups 1-5 (see also Table 7).

[2] = test system: bilateral ovariectomized female C57BL/6JRj mice; experiment: Menopausal mouse model: temperature and tissue weights; type: in vivo; conditions: for Body weight compared with vehicle: after 10 days treatment
Method: Bilateral ovariectomized female C57BL/6JRj mice, 8 weeks of age, were included in the study and administered with IgG2b (control) or 1 of 3 test articles (LH-β ab, LHCGR ab or GnRH antagonist) either at study day 1, or once a day for 9 days. The control/vehicle treatment was a non-specific antibody (IgG2b). The route of administration was through intraperitoneal (i.p.) injection. The study had four groups in total (Table 3); group 1 (female, n=6) was treated i.p. with IgG2b (control) on study day 1 and day 5, group 2 (female, n=3) was treated i.p. with LH-β ab at study day 1, group 3 (female, n=3) was treated i.p. with LHCGR ab at study day 1, group 4 (female, n=3) was treated i.p. with GnRH antagonist once a day (q.d.) for 9 days. Blood for preparation of serum was collected prior to dosing on study day 1 and at termination on study day 10. Core temperature and skin temperature were determined in female mice pre-dose on study day 1, at study day 5 and at termination on study day 10.
Seventeen (17) ovariectomized C57BL/6JRj female mice 8 weeks of age were supplied by Janvier Labs France. The ovaries from the female mice were surgically removed by the supplier. The mice were caged in European IVC cages type IIL. Temperature was 20° C. to 24° C. and the light cycle 12-hour dark and 12-hour light (lights on 06.00). The diet was Altromin 1324, produced by Altromin, Im Seelenkamp 20, 32791 Lage, Germany.
Temperature measurements were done using rectal thermometer (thermometer BIO-TK8851 combined with rectal probe BIO-BRET-3, both from BIOSEB Lab instruments) for core temperature and infrared (153-IRB Infrared Thermometer, BIOSEB Lab instruments) for skin temperature. The core temperature was recorded rectally, and skin temperature was recorded at the tail and the head between the ears at the same time of the day (morning). Immediately after termination, tissues (fat and thyroid mass) were dissected, weighed, placed in Eppendorf tubes and snap frozen by emerging the tube in liquid nitrogen or placed in histology jar and fixed in 4% neutral buffered formalin.

human kidney tissue = experiment: Ex vivo culture of human kidney tissue, qRT-PCR gene expression; type: cell-based
Method: Human kidney tissues from 5 adults (4 men, 1 […]) were cultured. All donors underwent partial nephrectomy due to suspected malignant kidney tumors and a pathologist removed tissues outside the malignant area. Kidney specimens were dissected in small pieces 1 mm^3 and cultured for either 3 or 24 hours in a hanging drop ex vivo model.
Gene expression profiling was done by qRT-PCR analyzing levels of calcium transporters SLC12A-1, SLC12A-2, TRPV5 as well as calcium-sensing receptor (CASR). The inventors also measured kidney expression of exon 2-4 and 11 of LHCGR using a primer-sequence previously validated by sequencing of the product from both serum and testis tissue. As calcium transporters are differentially expressed in the different parts of the nephron, all samples were standardized according to the expression of Uromodulin (UMOD), a protein located in the thick ascending limb of the loop of Henle and subsequently to MAP3K7 expressed in the distal convoluted tubules and in addition to being standardized to the housekeeping gene, RPS20. Ethical committee approval: H-17004362. All samples were analyzed with ANOVA with control/baseline as reference value and every p-value presented was adjusted for multiple comparisons with Dunnett's post hoc test.

C57BL/6JRj male mice = experiment: Calcium excretion and kidney weight in normal male mice; type: in vivo
Method: as §1
Seventeen (17) bilateral ovariectomized C57BL/6JRj female mice 8 weeks of age, were supplied by Janvier Labs France. The ovaries from the female mice were surgically removed by the supplier (see also Table 6). […]

Molecule: CC(=O)N[C@H](Cc1ccc2ccccc2c1)C(=O)N[C@H](Cc1ccc(Cl)cc1)C(=O)N[C@H](Cc1cccnc1)C(=O)N[C@@H](CO)C(=O)N[C@@H](Cc1ccc(O)cc1)C(=O)N[C@H](CCCNC(N)=O)C(=O)N[C@@H](CC(C)C)C(=O)N[C@@H](CCCNC(=N)N)C(=O)N1CCC[C@H]1C(=O)N[C@H](C)C(N)=O [GnRH antagonist, Cetrorelix, reference compound] (Ac-[d2Nal][dPhe(4-Cl)][d3Pal]SY[dCit]LRP[dA]-NH2)
- kidney weight compared with vehicle (IgG2b) [1]: slightly lower
- calcium excretion [1]: suppressed calcium excretion
- visceral fat mass ([2]; 10 days): suppressed
- Body weight compared with vehicle [2]: lower

Molecule: C[C@]12CC[C@H]3[C@@H](CCC4=CC(=O)CC[C@@]43C)[C@@H]1CC[C@@H]2O [testosterone, reference compound]
- expression of LHCGR exon 11 (human kidney tissue; three hours ex vivo culture, 5 out of 5 below detection vs vehicle 3 out of 10): suppressed

B1: LH-β ab: Monoclonal mouse antibody (IgG2B; Kappa) targeting mouse LH beta; variable light chain SEQ ID NO: 5, heavy chain SEQ ID NO: 9 (antibody)
heavy: MEWRIFLFILSGTAGVHSQVQLQQSGPELVKPGTSLKLSCKASGYTFTDYVLTWVKQRTGQGLEWIGEIYPGSGSTSYNEKFRGKATLTADKSSNTAYMQLSSLTSEDSAVYFCAHLYYADYDFSYWGQGTLVTVSAAKTTPPSVYPLAPGCGDTTGSSVTLGCLVKGYFPESVTVTWNSGSLSSSVHTFPALLQSGLYTMSSSVTVPSSTWPSQTVTCSVAHPASSTTVDKKLE
light: MKLPVRLLVLMFWIPVSSSDVLMTQIPLSLVVSLGDQASISCRSSQNIVQSNGNTYLEWYLQKPGQSPKLLIYKVSNRFSGVPDRFSGSGSGTDFTLKISRVEAEDLGVYYCFQGSHVPLTFGAGTKLELKRADAAPTVSIFPPSSEQLTSGGASVVCFLNNFYPKDINVKWKIDGSERQNGVLNSWTDQDSKDSTYSMSST
- calcium excretion (C57BL/6JRj male mice; all concentrations): reduced calcium excretion
- kidney weight compared with vehicle (IgG2b) (C57BL/6JRj male mice; day 10): slightly lower
- kidney weight compared with vehicle (IgG2b) [1]: slightly lower
- calcium excretion [1]: suppressed calcium excretion
- calcium excretion suppressed ([1]; high dosage, female mice): 70%
- subcutaneous fat mass ([2]; 10 days): suppressed
- thyroid mass ([2]; 10 days): lowered
- visceral fat mass ([2]; 10 days): suppressed
- Body weight compared with vehicle [2]: lower
- increase of core temperature relative to baseline ([2]; day 5 and 10): 8%
- change in body weight versus vehicle ([2]; most pronounced in the first 5 days): effective in suppressing the effect of menopause (gonadectomy) on weight induction

B2: PTH: parathyroid hormone, added to kidney tissue culture media at 0.01 pg/mL (protein, UniProt P01270 32-115, looked up)
Parathyroid hormone: SVSEIQLMHNLGKHLNSMERVEWLRKKLQDVHNFVALGAPLAPRDAGSQRPRKKEDNVLVESHEKSLGEADKADVNVLTKAKSQ
modifications: Parathyroid hormone
notes: parathyroid hormone, added to kidney tissue culture media at 0.01 pg/mL
- TRPV5 expression (human kidney tissue; after 24 hours): significantly increased
